# In article PMC7205571 (Structure (London, England : 1993), 2020):
# B1: hRpn2-bound hRpn13 (hRpn13 Pru:hRpn2 (940–953) complex) (complex, human)
# chain 1: MTTSGALFPSLVPGSRGASNKYLVEFRAGKMSLKGTTVTPDKRKGLVYIQQTDDSLIHFCWKDRTSGNVEDDLIIFPDDCEFKRVPQCPSGRVYVLKFKAGSKRLFFWMQEPKTDQDEEHCRKVNEYLNNPPMPGALGASGSSGHELSAL
# chain 2: QEPEPPEPFEYIDD
# modifications: 13C-labelled
# What was measured:
# hRpn13 Pru (1–150) = hRpn13 Pru (1–150) (human, UniProt Q16186 1-150, 13C-labelled); test: NMR structure
# monoubiquitin = monoubiquitin (UniProt P0CG48 1-76); test: NMR 13C-half-filtered NOESY
binder,measurement,setting,value
"QEPEPPEPFEYIDD (peptide, UniProt Q99460 940-953, looked up) [hRpn2 (940–953)]",binding result,hRpn13 Pru (1–150),binds
B1,binding result,monoubiquitin,binds
